From US20140112926A1 come the findings set out here.

Assay [1] has as its target GST-tagged version of human FcγRIIIA (human) (UniProt P08637). The assay can be described thus: AlphaLISA vs biotin-huIgG, supernatant, round 1. For orientation: Alpha assays give light when donor and acceptor beads are brought close together.
Assay [2] has the same target. The assay can be described thus: AlphaLISA vs biotin-huIgG, supernatant, round 2.
Assay [3] shares this target. The assay can be described thus: AlphaLISA vs biotin-huIgG, supernatant, round 3.

Chain of GST-tagged version of human FcγRIIIA (human) (P08637 17-208 limits assumed): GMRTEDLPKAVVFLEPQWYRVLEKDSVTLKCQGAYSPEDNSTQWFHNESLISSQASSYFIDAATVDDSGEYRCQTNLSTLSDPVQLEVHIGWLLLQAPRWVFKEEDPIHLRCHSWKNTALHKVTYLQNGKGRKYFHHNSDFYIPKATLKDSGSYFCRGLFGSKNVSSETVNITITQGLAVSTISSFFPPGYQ

Take “scFv-Fc/Fc, A287F in scFv-Fc (from UniProt P0DOX5 218-449; P0DOX5 218-449) (Fc fusion)”: the % inhibition (as a rule, how much of the control response was suppressed) in assay [1] came to 47.5%; in assay [2] it was 58.4%; in assay [3] it was 67.6%. For the same substance, the Alpha signal in assay [1] came to 39900; in assay [2] it was 33500; in assay [3] it was 25500.
In the case of “scFv-Fc/Fc, A330M in scFv-Fc (Fc fusion)”, the % inhibition in assay [1] came out at 27.1%; in assay [2] it was 36.6%; in assay [3], 26.2%. Besides, the Alpha signal in assay [1] worked out at 55400; in assay [2], 51000; in assay [3] it was 58000.
For “scFv-Fc/Fc, A330V in dummy Fc (Fc fusion)”, the % inhibition in assay [1] stood at 25.8%; in assay [2], 32.7%; in assay [3], 25.6%. The Alpha signal in assay [1] came out at 56400; in assay [2] it was 54100; in assay [3], 58400.
As to “scFv-Fc/Fc, A339T in dummy Fc (Fc fusion)”, the % inhibition was 25.8% in assay [1], 27.3% in assay [2] and 36.6% in assay [3]. The values for the Alpha signal in assay [1], in assay [2] and in assay [3] were 56400, 58400 and 49800, respectively.
Turning to “scFv-Fc/Fc, E258S in dummy Fc (Fc fusion)”, the % inhibition is 20.6% in assay [1], 28% in assay [2] and 21.6% in assay [3]. Moreover, the Alpha signal in assay [1] is 60300; in assay [2], 57900; in assay [3] it was 61600.
Take “scFv-Fc/Fc, E258V in scFv-Fc (from UniProt P0DOX5 218-449; P0DOX5 218-449) (Fc fusion)”: the % inhibition was determined as 69.3% in assay [1], 75.8% in assay [2] and 71.5% in assay [3]. Also, the Alpha signal in assay [1] turned out to be 23300; in assay [2], 19500; in assay [3] it was 22400.
With “scFv-Fc/Fc, E294L in dummy Fc (Fc fusion)”, the figures for the Alpha signal in assay [1], in assay [2] and in assay [3] were 30100, 35400 and 32200, respectively.
In the case of “scFv-Fc/Fc, E294L in scFv-Fc (Fc fusion)”, the Alpha signal in assay [1] came to 24300; in assay [2], 22900; in assay [3] it was 18200. Besides, the % inhibition in assay [3] was found to be 76.8%.
“scFv-Fc/Fc, F243I in dummy Fc (Fc fusion)” returned a % inhibition in assay [1] of 60.8%. Moreover, the Alpha signal worked out at 29800 in assay [1], 25800 in assay [2] and 23800 in assay [3].
With “scFv-Fc/Fc, F243I in scFv-Fc (Fc fusion)”, the % inhibition was found to be 60.6% in assay [1], 73.1% in assay [2] and 72.8% in assay [3]. For the same substance, the Alpha signal in assay [1] was found to be 30000; in assay [2] it was 21700; in assay [3], 21400.
As for “scFv-Fc/Fc, F243L in dummy Fc (Fc fusion)”, the % inhibition in assay [1] was 72.9%; in assay [2], 77.4%; in assay [3] it was 76.1%. Also, the Alpha signal in assay [1] turned out to be 20600; in assay [2], 18200; in assay [3], 18800.
Regarding “scFv-Fc/Fc, F243L in scFv-Fc (Fc fusion)”, the % inhibition amounted to 39.4% in assay [1], 28.6% in assay [2] and 29.7% in assay [3]. The values for the Alpha signal in assay [2] and in assay [3] were 57400 and 55200, respectively.
For the substance “scFv-Fc/Fc, F243M in dummy Fc (Fc fusion)”, the % inhibition came out at 43.3% in assay [1], 53.1% in assay [2] and 58.7% in assay [3]. Also, the Alpha signal in assay [1] was found to be 43100; in assay [2] it was 37700; in assay [3], 32400.
As for “scFv-Fc/Fc, F243V + S239T in dummy Fc (Fc fusion)”, the % inhibition was 84.8% in assay [1], 83% in assay [2] and 84.1% in assay [3]. Also, the Alpha signal is 11600 in assay [1], 13700 in assay [2] and 12500 in assay [3].
As for “scFv-Fc/Fc, F243V in dummy Fc (Fc fusion)”, the % inhibition stood at 49% in assay [1], 60.1% in assay [2] and 62.8% in assay [3]. The Alpha signal amounted to 38800 in assay [1], 32100 in assay [2] and 29300 in assay [3].
With “scFv-Fc/Fc, F243V in scFv-Fc (Fc fusion)”, the values for the % inhibition in assay [1], in assay [2] and in assay [3] were 45.1%, 47.7% and 48.6%, respectively. For the same substance, the Alpha signal was found to be 41700 in assay [1], 42100 in assay [2] and 40400 in assay [3].
“scFv-Fc/Fc, G236Y in scFv-Fc (Fc fusion)”: the % inhibition in assay [1] was found to be 15%; in assay [2], 23.2%; in assay [3] it was 20.9%. The Alpha signal in assay [1] came to 64600; in assay [2], 61700; in assay [3] it was 62200.
Regarding “scFv-Fc/Fc, H268E in scFv-Fc (from UniProt P0DOX5 218-449; P0DOX5 218-449) (Fc fusion)”, the results for the Alpha signal in assay [1], in assay [2] and in assay [3] were 54800, 56600 and 57100, respectively.
Consider “scFv-Fc/Fc, H268K in scFv-Fc (from UniProt P0DOX5 218-449; P0DOX5 218-449) (Fc fusion)”, for which the % inhibition is 20.2% in assay [1], 22.6% in assay [2] and 21.6% in assay [3]. The Alpha signal in assay [1] turned out to be 60600; in assay [2], 62200; in assay [3] it was 61600.
“scFv-Fc/Fc, I253K in scFv-Fc (Fc fusion)”: the % inhibition in assay [1] is 24.5%; in assay [2], 35.2%; in assay [3], 34.7%. Further, the Alpha signal came to 57400 in assay [1], 52100 in assay [2] and 51300 in assay [3].
Take “scFv-Fc/Fc, I253V in dummy Fc (Fc fusion)”: the figures for the % inhibition in assay [1], in assay [2] and in assay [3] were 23%, 23.5% and 25.7%, respectively. The figures for the Alpha signal in assay [1], in assay [2] and in assay [3] were 58500, 61500 and 58400, respectively.
Consider “scFv-Fc/Fc, I332E in dummy Fc (Fc fusion)”, for which the % inhibition in assay [1] is 85.8%; in assay [2] it was 87.7%; in assay [3], 85.3%. In addition, the Alpha signal in assay [1] is 10800; in assay [2], 9880; in assay [3], 11500.
Consider “scFv-Fc/Fc, I332E in scFv-Fc (Fc fusion)”, for which the results for the % inhibition in assay [1], in assay [2] and in assay [3] were 75.1%, 74.6% and 76.5%, respectively. Also, the Alpha signal in assay [1] was determined as 18900; in assay [2], 20400; in assay [3] it was 18400.
Turning to “scFv-Fc/Fc, K246E in dummy Fc (Fc fusion)”, the % inhibition in assay [1] is 22.4%; in assay [2], 22.2%; in assay [3] it was 32.1%. The values for the Alpha signal in assay [1], in assay [2] and in assay [3] were 58900, 62600 and 53300, respectively.
With “scFv-Fc/Fc, K246S in dummy Fc (Fc fusion)”, the % inhibition worked out at 40.6% in assay [1], 47.3% in assay [2] and 51.8% in assay [3]. Besides, the Alpha signal in assay [1] was found to be 45100; in assay [2], 42400; in assay [3], 37900.
As to “scFv-Fc/Fc, K246V in dummy Fc (Fc fusion)”, the Alpha signal came to 43800 in assay [1], 44500 in assay [2] and 42800 in assay [3].
As for “scFv-Fc/Fc, K246W in dummy Fc (Fc fusion)”, the values for the % inhibition in assay [1], in assay [2] and in assay [3] were 20%, 29% and 34.2%, respectively. The Alpha signal in assay [1] turned out to be 60800; in assay [2], 57100; in assay [3] it was 51700.
Turning to “scFv-Fc/Fc, K248L in dummy Fc (Fc fusion)”, the % inhibition in assay [1] turned out to be 67.5%; in assay [2], 71.3%; in assay [3] it was 68.4%. Also, the Alpha signal in assay [1] stood at 24700; in assay [2], 23100; in assay [3] it was 24800.
Consider “scFv-Fc/Fc, K248Y in dummy Fc (Fc fusion)”, for which the % inhibition worked out at 31.5% in assay [1], 36.5% in assay [2] and 40.2% in assay [3]. The Alpha signal was 52100 in assay [1], 51000 in assay [2] and 47000 in assay [3].
In the case of “scFv-Fc/Fc, K288I in scFv-Fc (from UniProt P0DOX5 218-449; P0DOX5 218-449) (Fc fusion)”, the % inhibition in assay [1] is 25.8%. The figures for the Alpha signal in assay [1], in assay [2] and in assay [3] were 56400, 57500 and 57300, respectively.
“scFv-Fc/Fc, K288T in dummy Fc (Fc fusion)” returned a % inhibition in assay [1] of 26.7%. Further, the Alpha signal in assay [1] is 55700; in assay [2], 53100; in assay [3] it was 50300.
“scFv-Fc/Fc, K290F in dummy Fc (Fc fusion)”: the % inhibition in assay [1] turned out to be 23.1%; in assay [2], 31.1%; in assay [3], 23.5%. In addition, the Alpha signal in assay [1] stood at 58500; in assay [2], 55400; in assay [3], 60100.
Take “scFv-Fc/Fc, K290G in dummy Fc (Fc fusion)”: the % inhibition in assay [1] was 73%; in assay [2], 75%; in assay [3] it was 51%. In addition, the figures for the Alpha signal in assay [1] and in assay [2] were 20600 and 20100, respectively.
In turn, “scFv-Fc/Fc, T307G in scFv-Fc (Fc fusion)” displayed an Alpha signal in assay [1] of 32500. Also, the % inhibition in assay [3] turned out to be 51%.
